Experimental data reported in publication PMC5978004.

Target: human MALT1 (mammalian expression) (human) (UniProt Q9UDY8)
Sequence of UniProt Q9UDY8 (Q9UDY8 whole entry): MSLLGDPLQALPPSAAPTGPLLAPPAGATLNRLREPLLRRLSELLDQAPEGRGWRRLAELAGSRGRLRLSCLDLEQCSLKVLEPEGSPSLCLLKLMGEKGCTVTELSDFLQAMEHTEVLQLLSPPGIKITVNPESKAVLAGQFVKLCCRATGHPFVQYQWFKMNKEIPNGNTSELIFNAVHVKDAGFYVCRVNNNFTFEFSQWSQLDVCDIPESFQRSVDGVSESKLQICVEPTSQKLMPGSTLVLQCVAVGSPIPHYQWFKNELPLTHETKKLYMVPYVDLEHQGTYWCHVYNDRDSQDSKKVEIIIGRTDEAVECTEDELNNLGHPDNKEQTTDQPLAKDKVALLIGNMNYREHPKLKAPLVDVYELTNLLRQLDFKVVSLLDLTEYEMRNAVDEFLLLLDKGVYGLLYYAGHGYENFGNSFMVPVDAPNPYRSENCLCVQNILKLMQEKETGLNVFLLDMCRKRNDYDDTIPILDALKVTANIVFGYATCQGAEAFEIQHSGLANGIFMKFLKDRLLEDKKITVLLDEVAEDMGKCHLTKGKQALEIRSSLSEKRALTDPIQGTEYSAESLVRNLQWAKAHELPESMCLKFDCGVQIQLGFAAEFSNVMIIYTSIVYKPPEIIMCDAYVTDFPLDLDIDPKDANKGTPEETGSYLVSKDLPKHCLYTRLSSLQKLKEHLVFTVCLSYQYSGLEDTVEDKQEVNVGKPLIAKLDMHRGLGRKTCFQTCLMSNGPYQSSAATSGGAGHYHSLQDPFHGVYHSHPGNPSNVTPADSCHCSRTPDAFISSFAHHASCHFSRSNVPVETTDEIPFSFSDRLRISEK

“Nematostella vectensis Bcl10 (NvBcl10), E-tagged, in pCAGGS (natural protein)” gave a human MALT1-dependent NF-κB luciferase reporter induction in MALT1-deficient HEK293T cells with or without human MALT1 of 2.5 fold.
